Measurements as given in article PMC4303305 (Biochemistry, 2014).
Like-named read-outs stand apart in the source and are kept apart here.

Legend:
SEC [1] = target: the molecule itself; experiment: SEC
SEC [2] = target: the molecule itself; experiment: SEC; remark: listed apart in the source

Protein	stoichiometry N (SEC [1])	stoichiometry N (SEC [2])
NP4(K38Q/R39Q/K125Q) (natural protein, Rhodnius prolixus, UniProt Q94734 22-205, looked up) ACTKNAIAQTGFNKDKYFNGDVWYVTDYLDLEPDDVPQQYCAALAAGTASGKLKEALYHYDPKTQDTFYDVSELQVESLGKYTANFKKVDKNGNVKVAVTAGNYYTFTVMYADDSSALIHTCLHQGNKDLGDLYAVLNRNKDAAAGDKVKSAVSAATLEFSKFISTKENNCAYDNDSLKSLLTK	2	
NP1(K1A) (natural protein, Rhodnius prolixus, UniProt Q26239 24-207, looked up) ACTKNALAQTGFNKDKYFNGDVWYVTDYLDLEPDDVPKRYCAALAAGTASGKLKEALYHYDPKTQDTFYDVSELQEESPGKYTANFKKVEKNGNVKVDVTSGNYYTFTVMYADDSSALIHTCLHKGNKDLGDLYAVLNRNKDTNAGDKVKGAVTAASLKFSDFISTKDNKCEYDNVSLKSLLTK		2
native N-terminal NP1 with C-terminal His6 tag (natural protein, Rhodnius prolixus, UniProt Q26239 24-207, looked up) KCTKNALAQTGFNKDKYFNGDVWYVTDYLDLEPDDVPKRYCAALAAGTASGKLKEALYHYDPKTQDTFYDVSELQEESPGKYTANFKKVEKNGNVKVDVTSGNYYTFTVMYADDSSALIHTCLHKGNKDLGDLYAVLNRNKDTNAGDKVKGAVTAASLKFSDFISTKDNKCEYDNVSLKSLLTK		2
